Test results reported in the supplement of paper PMC9112550, “Optimization of the antimicrobial peptide Bac7 by deep mutational scanning” (BMC Biology, 2022).

Test system: Escherichia coli TOP10
Assay: shrunken log2 fold change of peptide-encoding DNA abundance (4.5 h post-induction vs induction); higher = less antimicrobial activity (less host growth inhibition)
Settings: time post-induction: 4.5 h; library: site-saturation at positions 5, 18, 19, 20
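Note: peptides expressed intracellularly from a pBAD plasmid library in pooled LB shake-flask culture, induced with 0.3% L-arabinose, DNA abundance read by NGS, three biological replicates, DESeq2 with apeglm shrinkage.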

Sequence	shrunken log2 fold change
RRIRTRPPRLPRPRPRPCFMPRP	-0.153
RRIRTRPPRLPRPRPRPDGEPRP	0.0799
RRIRDRPPRLPRPRPRPLMNPRP	0.0268
RRIRNRPPRLPRPRPRPRLSPRP	0.0939
RRIRCRPPRLPRPRPRPTYYPRP	-0.758
RRIRMRPPRLPRPRPRPQQKPRP	0.0182
RRIRRRPPRLPRPRPRPMCAPRP	0.193
RRIRWRPPRLPRPRPRPHNQPRP	-0.445
RRIRKRPPRLPRPRPRPMITPRP	-0.278
RRIRGRPPRLPRPRPRPSWPPRP	0.384
RRIRARPPRLPRPRPRPPRYPRP	0.896
RRIRPRPPRLPRPRPRPLVGPRP	0.408
RRIRQRPPRLPRPRPRPGIQPRP	-0.056
RRIRNRPPRLPRPRPRPFSWPRP	0.0512
RRIRTRPPRLPRPRPRPCVSPRP	-0.221
RRIRKRPPRLPRPRPRPRHQPRP	1.82
RRIRLRPPRLPRPRPRPWLIPRP	-0.00228
RRIRMRPPRLPRPRPRPMGLPRP	0.0299
RRIRHRPPRLPRPRPRPYWRPRP	-0.347
RRIRFRPPRLPRPRPRPMMNPRP	-0.77
RRIRARPPRLPRPRPRPCSIPRP	-0.092
RRIRKRPPRLPRPRPRPDILPRP	0.0039
RRIRPRPPRLPRPRPRPYKQPRP	-0.777
RRIRRRPPRLPRPRPRPLISPRP	-0.111
RRIRERPPRLPRPRPRPESRPRP	-0.0773

Sequence	shrunken log2 fold change
RRIRSRPPRLPRPRPRPFPKPRP	0.107
RRIRMRPPRLPRPRPRPWHYPRP	-0.327
RRIRWRPPRLPRPRPRPYKNPRP	-0.61
RRIRARPPRLPRPRPRPCCAPRP	0.774
RRIRLRPPRLPRPRPRPQCCPRP	0.0421
RRIRTRPPRLPRPRPRPTSHPRP	-0.478
RRIRDRPPRLPRPRPRPRSNPRP	0.148
RRIRKRPPRLPRPRPRPQKVPRP	-0.0143
RRIRIRPPRLPRPRPRPNPVPRP	0.087
RRIRWRPPRLPRPRPRPVCSPRP	0.0102
RRIRPRPPRLPRPRPRPLDIPRP	-0.408
RRIRTRPPRLPRPRPRPTGVPRP	0.077
RRIRERPPRLPRPRPRPVAGPRP	0.246
RRIRIRPPRLPRPRPRPGTKPRP	-0.0997
RRIRVRPPRLPRPRPRPRSGPRP	0.322
RRIRGRPPRLPRPRPRPWVKPRP	0.0642
RRIRPRPPRLPRPRPRPSICPRP	-0.718
RRIRTRPPRLPRPRPRPHVKPRP	-0.126
RRIRERPPRLPRPRPRPQVRPRP	-0.0385
RRIRHRPPRLPRPRPRPDSQPRP	-0.194
RRIRRRPPRLPRPRPRPAWWPRP	1.01
RRIRDRPPRLPRPRPRPDALPRP	0.306
RRIRRRPPRLPRPRPRPFPMPRP	0.0657
RRIRIRPPRLPRPRPRPYVWPRP	-1.33
RRIRARPPRLPRPRPRPFYAPRP	-0.066

Sequence	shrunken log2 fold change
RRIRSRPPRLPRPRPRPVQVPRP	0.159
RRIRVRPPRLPRPRPRPQMHPRP	-0.175
RRIRQRPPRLPRPRPRPTMWPRP	0.16
RRIRDRPPRLPRPRPRPPGFPRP	0.348
RRIRYRPPRLPRPRPRPFFVPRP	-0.689
RRIRDRPPRLPRPRPRPPTWPRP	0.291
RRIRARPPRLPRPRPRPSTQPRP	0.265
RRIRSRPPRLPRPRPRPCNEPRP	-1.09
RRIRQRPPRLPRPRPRPLWCPRP	-0.24
RRIRTRPPRLPRPRPRPYFCPRP	-0.0855
RRIRTRPPRLPRPRPRPSQQPRP	0.117
RRIRPRPPRLPRPRPRPWAFPRP	0.144
RRIRCRPPRLPRPRPRPGCKPRP	0.0416
RRIRDRPPRLPRPRPRPQCWPRP	0.0162
RRIRVRPPRLPRPRPRPAQYPRP	-0.0437
RRIRFRPPRLPRPRPRPQIAPRP	0.111
RRIRIRPPRLPRPRPRPYVIPRP	-0.017
RRIRHRPPRLPRPRPRPPMPPRP	0.108
RRIRYRPPRLPRPRPRPGNDPRP	-0.356
RRIRCRPPRLPRPRPRPTQKPRP	0.0827
RRIRSRPPRLPRPRPRPNWKPRP	0.00354
RRIRQRPPRLPRPRPRPKGRPRP	0.0377
RRIRKRPPRLPRPRPRPEFTPRP	0.738
RRIRVRPPRLPRPRPRPINKPRP	-0.613
RRIRRRPPRLPRPRPRPREFPRP	0.419

Sequence	shrunken log2 fold change
RRIRKRPPRLPRPRPRPAWKPRP	-0.116
RRIRGRPPRLPRPRPRPYKLPRP	-0.481
RRIRWRPPRLPRPRPRPIYYPRP	-0.488
RRIRYRPPRLPRPRPRPPGHPRP	-0.337
RRIRWRPPRLPRPRPRPENSPRP	0.0193
RRIRPRPPRLPRPRPRPPKLPRP	0.172
RRIRCRPPRLPRPRPRPRFSPRP	-0.289
RRIRNRPPRLPRPRPRPPLNPRP	0.0798
RRIRMRPPRLPRPRPRPKFLPRP	0.192
RRIRFRPPRLPRPRPRPFRSPRP	-0.0534
RRIRVRPPRLPRPRPRPCLQPRP	-0.421
RRIRNRPPRLPRPRPRPKNNPRP	-0.407
RRIRKRPPRLPRPRPRPKYMPRP	-0.0337
RRIRVRPPRLPRPRPRPIHQPRP	-0.166
RRIRWRPPRLPRPRPRPAHIPRP	-0.0509
RRIRARPPRLPRPRPRPINIPRP	-0.334
RRIRDRPPRLPRPRPRPVGGPRP	2.15
RRIRVRPPRLPRPRPRPCCGPRP	-0.248
RRIRVRPPRLPRPRPRPQSHPRP	-0.613
RRIRFRPPRLPRPRPRPWNKPRP	-0.722
RRIRERPPRLPRPRPRPLCKPRP	-0.304
RRIRWRPPRLPRPRPRPSKKPRP	0.0769
RRIRTRPPRLPRPRPRPPCEPRP	0.0977
RRIRQRPPRLPRPRPRPHVTPRP	0.0406
RRIRMRPPRLPRPRPRPWVSPRP	-0.0423

Sequence	shrunken log2 fold change
RRIRGRPPRLPRPRPRPYIDPRP	0.093
RRIRSRPPRLPRPRPRPPILPRP	0.0371
RRIRWRPPRLPRPRPRPQIWPRP	0.0603
RRIRTRPPRLPRPRPRPNLGPRP	0.152
RRIRKRPPRLPRPRPRPSPEPRP	0.525
RRIRFRPPRLPRPRPRPIRRPRP	0.0321
RRIRIRPPRLPRPRPRPQHYPRP	-1.3
RRIRVRPPRLPRPRPRPGKMPRP	-0.0672
RRIRIRPPRLPRPRPRPVNEPRP	-0.213
RRIRARPPRLPRPRPRPFHAPRP	-0.0904
RRIRNRPPRLPRPRPRPFPEPRP	-0.293
RRIRCRPPRLPRPRPRPEWPPRP	0.331
RRIRYRPPRLPRPRPRPLQNPRP	0.0956
RRIRKRPPRLPRPRPRPVRTPRP	0.583
RRIRFRPPRLPRPRPRPTVQPRP	0.0692
RRIRYRPPRLPRPRPRPDHNPRP	-0.217
RRIRKRPPRLPRPRPRPAVRPRP	0.951
RRIRYRPPRLPRPRPRPHAMPRP	-0.221
RRIRARPPRLPRPRPRPMRDPRP	1.04
RRIRMRPPRLPRPRPRPKNMPRP	-0.0276
RRIRTRPPRLPRPRPRPFRQPRP	0.0156
RRIRARPPRLPRPRPRPQIRPRP	0.0717
RRIRERPPRLPRPRPRPKTTPRP	-0.107
RRIRQRPPRLPRPRPRPSCNPRP	-0.683
RRIRFRPPRLPRPRPRPLCYPRP	-0.557

Sequence	shrunken log2 fold change
RRIRTRPPRLPRPRPRPSFKPRP	-0.465
RRIRPRPPRLPRPRPRPWMNPRP	-0.0141
RRIRNRPPRLPRPRPRPYRKPRP	-0.0658
RRIRYRPPRLPRPRPRPYSNPRP	-0.127
RRIRERPPRLPRPRPRPQDQPRP	0.0272
RRIRRRPPRLPRPRPRPGHPPRP	0.237
RRIRNRPPRLPRPRPRPHAIPRP	-0.673
RRIRFRPPRLPRPRPRPAVLPRP	0.107
RRIRPRPPRLPRPRPRPTLSPRP	0.421
RRIRDRPPRLPRPRPRPSQSPRP	-0.119
RRIRQRPPRLPRPRPRPYILPRP	-0.773
RRIRCRPPRLPRPRPRPFSWPRP	-0.141
RRIRSRPPRLPRPRPRPRLEPRP	0.596
RRIRSRPPRLPRPRPRPNIIPRP	-0.774
RRIRLRPPRLPRPRPRPVYKPRP	-0.134
RRIRFRPPRLPRPRPRPEKRPRP	-0.0774
RRIRTRPPRLPRPRPRPKIFPRP	-0.219
RRIRWRPPRLPRPRPRPFWHPRP	-0.0195
RRIRRRPPRLPRPRPRPNAFPRP	-0.0721
RRIRSRPPRLPRPRPRPWPHPRP	-0.0676
RRIRRRPPRLPRPRPRPEYYPRP	-0.324
RRIRYRPPRLPRPRPRPTLHPRP	-0.749
RRIRPRPPRLPRPRPRPGDSPRP	0.035
RRIRSRPPRLPRPRPRPMWRPRP	0.1
RRIRPRPPRLPRPRPRPPKMPRP	0.401
